From article PMC5578738 (2017)

T1: Side-VI (Drosophila, UniProt Q0KI85)
T1 chain: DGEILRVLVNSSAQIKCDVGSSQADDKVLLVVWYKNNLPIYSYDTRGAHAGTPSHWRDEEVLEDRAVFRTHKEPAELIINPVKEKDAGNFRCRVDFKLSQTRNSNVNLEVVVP


Molecular target: T1, Side-VI
Assay: SPR equilibrium, monomer ECD

Kd [µM] | Binder
2.3 | Beat-Vb (protein) LRVTDINVPQIVDFRDNVTLSCSYDISGHTLNSVKWYKNGKEFFRYSPLTPPTYIPFAVEGVQLIDDGNECNESSCRVELNLLGVKSSGVYRCEVSGDAPHFQLTARDANMTVEAL
0.76 | Beat-Va (protein) LFVTDISVPEIVDFRDNVTLSCSYDMRGHTLNSVKWYKDHEEFFRYSPLTSPIYMTFDVAGLQVLEGKYVCNESSCRLDLSLQGAKSTGLYKCEVSGDAPHFKLADKADNMTVAA
